Experimental data: the supplement of paper PMC9732359
± gives the uncertainty stated by the source.

Test: protein stability index of a GFP-peptide fusion (yeast GPS) (PSI 1-4); higher = more stable; sorted into four equal gates, so the index is relative within each strain
How it was run: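 Plasmids in a pooled yeast library fused tiled 17-residue yeast protein peptides downstream of GFP and also expressed Cherry. Mid-log cultures grown without leucine were sorted into four equal gates by GFP/Cherry fluorescence ratio. Each gate's plasmids were PCR-amplified and Illumina-sequenced, and reads were matched to strains by barcodes. The protein stability index is derived by multiplying each gate's read frequency by its gate number and summing the results.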

Row | Sequence | protein stability index (doa10∆) | protein stability index (pdr5∆) | protein stability index (san1∆) | protein stability index (ubr1∆)
1 | STSNTPSPPNVIITDGT [YDL088C/ASM4] | 2.79 ± 0.031 | 2.95 ± 0.031 | 2.9 ± 0.035 | 2.956 ± 0.029
2 | STSSGKVSYAVKKPQKS [SNM1] | 2.04 ± 0.13 | 2.76 ± 0.1 | 2.01 ± 0.17 | 3.02 ± 0.16
3 | STTNSDVSLLLQRDLFI [RGR1] | 2.76 ± 0.093 | 3.06 ± 0.1 | 2.81 ± 0.067 | 3.02 ± 0.077
4 | STVIEEFTLFMDIAERI [YGL172W/NUP49] | 2.37 ± 0.053 | 2.71 ± 0.053 | 2.47 ± 0.049 | 2.75 ± 0.038
5 | SVAKIRFPETMDETQTR [RPO21] | 3.55 ± 0.073 | 3.34 ± 0.12 | 3.66 ± 0.063 | 3.59 ± 0.049
6 | SVAVHFQYVIDESSGTS [SMC4] | 1.99 ± 0.081 | 1.6 ± 0.074 | 2.01 ± 0.074 | 1.77 ± 0.055
7 | SVERGRKRAHSLVSTQS [REC8] | 3.21 ± 0.082 | 3.12 ± 0.066 | 3.26 ± 0.047 | 3.16 ± 0.042
8 | SVFYNIANMVLPPEKIY [SIR2] | 1.78 ± 0.048 | 1.77 ± 0.043 | 1.81 ± 0.06 | 1.55 ± 0.04
9 | SVGLPSKVASSLVIIIL [ECM29] | 2.21 ± 0.048 | 1.8 ± 0.041 | 2.28 ± 0.064 | 2.21 ± 0.061
10 | SVGNLEVVKSLYDRPLK [NAS6] | 3.29 ± 0.19 | 2.89 ± 0.2 | 3.12 ± 0.075 | 3.34 ± 0.1
11 | SVNFFVSLLKKNWQNVG [RPL1A] | 1.19 ± 0.07 | 1.32 ± 0.063 | 1.25 ± 0.14 | 1.46 ± 0.063
12 | SVNPAMLPGSSNGGGKV [RPO31] | 2.98 ± 0.071 | 3.36 ± 0.12 | 3.07 ± 0.08 | 3.08 ± 0.06
13 | SVPTNSADAPNPNNVNV [RET1] | 3.24 ± 0.084 | 3.14 ± 0.081 | 3.26 ± 0.049 | 3.23 ± 0.058
14 | SVTEIPLKLSGEGPFTV [YMR129W/POM152] | 2.96 ± 0.072 | 3.23 ± 0.079 | 2.78 ± 0.078 | 2.81 ± 0.16
15 | SVVRGNTFKVLSKFFFF [COB] | 2.11 ± 0.065 | 2.2 ± 0.13 | 2.44 ± 0.093 | 1.83 ± 0.069
16 | SWEEGTRQSSRNFDTHE [MCD1] | 3.26 ± 0.12 | 3.59 ± 0.13 | 3.31 ± 0.1 | 3.38 ± 0.15
17 | SYEVEHVIQIPLNKPLL [TAF14] | 2.46 ± 0.069 | 2.66 ± 0.045 | 2.52 ± 0.06 | 2.51 ± 0.055
18 | SYFLQERYFDCCTKFFT [PCI8] | 1.54 ± 0.069 | 1.52 ± 0.059 | 1.76 ± 0.08 | 2.13 ± 0.044
19 | SYHNGNLKGRPYTGWVD [FAS2] | 2.07 ± 0.096 | 3.13 ± 0.1 | 3.08 ± 0.1 | 2.83 ± 0.094
20 | SYIGTIIVKDKSNDSEG [POP1] | 1.4 ± 0.1 | 1.44 ± 0.052 | 1.45 ± 0.093 | 1.35 ± 0.093
21 | SYINVTFRAVVFKPFLG [RPC25] | 1.52 ± 0.084 | 1.95 ± 0.061 | 2.26 ± 0.079 | 1.94 ± 0.056
22 | SYLEERERQVNEKLADL [RPC53] | 3.2 ± 0.14 | 3.42 ± 0.16 | 3.12 ± 0.17 | 3.19 ± 0.23
23 | SYRNGMASYMLNSFAFE [YJR042W/NUP85] | 2.29 ± 0.09 | 2.45 ± 0.11 | 2.6 ± 0.1 | 3.01 ± 0.084
24 | SYVAVLGMGKAVEKTLA [POP7] | 1.75 ± 0.13 | 2.17 ± 0.081 | 1.82 ± 0.11 | 1.61 ± 0.086
25 | SYVETLDSMIELFKDYK [MED1] | 3.24 ± 0.085 | 3.22 ± 0.1 | 3.34 ± 0.052 | 3.19 ± 0.054
26 | SYYGIVCLMQISTRERD [RRP6] | 1.96 ± 0.12 | 1.41 ± 0.081 | 1.21 ± 0.16 | 1.39 ± 0.09
